Laboratory results reported in patent US7374920B2, “Ginkgo biloba levopimaradiene synthase” (priority 2001, dated 2008).
Entries after “also recorded” stand apart in the source; their conditions may differ.

Key:
[1] = in vitro enzymatic assay of levopimaradiene synthase constructs expressed in E. coli BL21(DE3); format: biochemical, Escherichia coli
Procedure: The desired plasmids were prepared by ligating the mutated gene insert into the similarly digested vectors pET32c(+) (Novagen; Madison, Wis.) and pRS426GAL (Hua, 2000), a multiple copy yeast expression vector. These plasmids was expressed in E. coli BL21(DE3) (Novagen; Madison, Wis.). E. coli cells were grown in Luria-Bertani medium supplemented with 100 μg/mL ampicillin at 37° C. with shaking to OD600 ˜0.6. The following parameters were tested: isopropyl 1-thio-β-D-galactopyranoside (IPTG) concentration (50, 100, 250, 500, and 1000 μM); and temperature and time (20° C. for 2, 3, 4, 6, 21 hours, 22° C. for 6, 8, 16, 19, 22, 45 hours, and 30° C. for 3, 6 hours). The following assay conditions were tested to obtain maximum diterpene product yield: 30 mM HEPES (N-2-hydroxyethylpiperazine-N′-[…]), pH 6.9, 7.2, 7.6, 8.0; 30 mM Tris (tris(hydroxymethyl)aminomethane hydrochloride), pH 7.4, 7.8, 8.2; 1, 5, 10% glycerol; 1, 3, 5, 10, 20 mM DTT (dithiothreitol); 20 mM β-mercaptoethanol; 2, 5, 8% Triton X-100; 5% Tween 80; 0, 2, 7.5, 20, 50 mM MgCl2; 0, 30, 500, 1000 μM MnCl2; 2, 10, 13.3, 20, 40, 80, 200 μM GGDP; and 23° C. and 32° C. assay temperatures.
Optimal soluble protein production and diterpene yield were obtained with the following conditions. Cell cultures were induced with 1 mM IPTG at 20° C. with shaking for 6 hours and lysed by sonication in 30 mM HEPES, pH 7.2, 5 mM DTT, and 5% glycerol. The soluble fraction of the lysate (100 mg/mL) was incubated with 20 μM GGDP in 30 mM HEPES, pH 7.2, 5 mM DTT, 5% glycerol, 2 mM MgCl2, and 500 μM MnCl2 overnight at 32° C.
(§1) All in vitro reactions were extracted 3× with hexane and dried over MgSO4. The reaction was further extracted twice with diethyl ether and dried over MgSO4. Thereafter, the crude lysate was suspended in 100 mM Tris, pH 8.0 containing 2.9 units/mg apyrase (a dephosphorylating agent) and 10 units/μL calf intestinal alkaline phosphatase, incubated at 30° C. for 3 hours, and extracted with diethyl ether as noted above (Croteau and Cane, 1985). The crude reaction mixtures were eluted over SiO2, concentrated, and analyzed by GC and GC/MS.
(§2) Gas chromatography spectra were obtained on a Hewlett Packard 6890 Series GC System equipped with an Rtx-5 capillary column (Restek, 30 m×0.25 mm i.d., 0.10 μm df). The following separation conditions and temperature program were employed: injector port 250° C., FID 250° C., split ratio 39:1, helium flow 20 cm/s (0.6 mL/min), 150° C. hold 5 min, increase to 250° C. (5° C./min), hold 5 min. GC/MS spectra were obtained on a Hewlett-Packard 5890A instrument with a 30-m DB-5 ms column (J&W Scientific Inc., 0.25 mm i.d., 0.10 μm df). The following separation conditions and temperature program were employed: injector port 280° C., transfer lines: 280° C., helium flow at 30 cm/s (1 mL/min) with splitless injection at 150° C. hold 3 min, increase to 250° C. (5° C./min), hold 5 min. Mass spectra (m/z 50 to 500) were obtained on a VG ZAB-HF reverse-geometry double-focusing instrument at 70 eV with an electron-impact ion source (200° C.). Accelerating voltage was set to 8 kV and the resolution was 1000 (10% valley).
The skilled artisan recognizes that lysis and assay conditions should be optimized. Examples of parameters that can be adjusted to optimize conditions include altering buffer, pH, reductant, reductant concentration, metal cofactors, cofactor concentrations, glycerol concentrations, substrate concentrations, and assay temperatures. […] Maximum soluble protein production and diterpene yield were obtained with the following conditions. Cell cultures were induced with 1 mM IPTG at 20° C. with shaking for 6 hours and lysed by sonication in 30 mM HEPES, pH 7.2, 5 mM DTT, and 5% glycerol. The soluble fraction of the lysate (100 mg/1 mL) was incubated with 20 μM GGDP in 30 mM HEPES, pH 7.2, 5 mM DTT, 5% glycerol, 2 mM MgCl2, and 500 μM MnCl2 overnight at 32° C. […]

EHY18 yeast cells = assay: in vivo expression of GbLS constructs in yeast strain EHY18 that accumulates GGDP, GC quantitation of products; format: cell-based
Procedure: The yeast strain of the copending application employed was EHY18 (Hart, E., 2001) which was further transformed with multiple-copy yeast expression vectors comprising an isolated and purified nucleic acid sequence of GbLS or derivatives thereof, which are described herein under control of the GAL1 inducible promoter. Yeast cells were grown to saturation in 5 mL ScD-Leu-Ura at 30° C. Cells were harvested (1300×g, 2 min, 25° C.) and resuspended in 500 μL sterile Milli-Q H2O (2×). The washed cells were resuspended in 5 mL sterile Milli-Q H2O. An aliquot of the culture (5 μL) was added to a 25 mL Corex tube containing pre-prepared 2× resin and 5 mL ScG-Leu-Ura (4% galactose) and shaken at 30° C. for 6 days. Resin was collected by filtration through a Kontes chromatography column (1.7 cm diameter) and rinsed with dI H2O until eluent was clear. The resin was incubated in 2 mL ethanol for several minutes, eluted, and repeated 2×. The combined eluents were dissolved in approximately 3 mL dI H2O and extracted (3×) with 3 mL hexane. The combined extracts were concentrated under a stream of nitrogen. GC analysis (quantitation extrapolated from 0.2 mg/mL longifolene external standard) indicated the following product profile (obtained from triplicate measurement of three cultures): 0.61±0.20 mg/L levopimaradiene, 0.04±0.01 mg/L abietadiene, 0.15±0.05 mg/L abietatriene, 0.16±0.13 mg/L (+)-copalol, and 1.79±0.90 mg/L geranylgeraniol. GC/MS fragmentation confirmed the identity of each compound.
A large scale culture (1-L) was prepared by growing the yeast cells to saturation in 5 mL ScD-Leu-Ura at 30° C. Cells were harvested (1300×g, 2 min, 25° C.) and resuspended in 500 μL sterile Milli-Q H2O (2×). The washed cells were resuspended in 5 mL sterile Milli-Q H2O. An aliquot of the culture (1 mL) was added to a 2 L flask containing 1-L ScG-Leu-Ura (4% galactose) and 88.27 g resin in 120 mL Milli-Q H2O (pre-prepared). The resin was eluted with ethanol (3×100 mL with 20 min incubation periods), which was subsequently extracted (6×) with hexane. The combined extracts were dried over magnesium sulfate, filtered, and concentrated under reduced pressure. GC analysis (quantitation extrapolated from 0.2 mg/mL longifolene external standard) indicated the following product profile (obtained from triplicate measurement): 0.29±0.04 mg/L levopimaradiene, 0.04±0.02 mg/L abietadiene, 0.13±0.04 mg/L abietatriene, 0.11±0.02 mg/L (+)-copalol, and 0.56±0.03 mg/L geranylgeraniol. GC/MS analyses confirmed the production of the above noted diterpenes, which included hydrocarbons and an alcohol.
Further optimization studies employed the Ser61 construct. Factors influencing diterpene production included induction period and concentration of galactose and resin in the inducing medium.

[2] = in vitro assay of levopimaradiene synthase constructs expressed in wild-type S. cerevisiae JBY575; format: biochemical, Saccharomyces cerevisiae; conditions: wild-type S. cerevisiae JBY575, galactose 48 hours, lysate with GGDP
Procedure: Expression in S. cerevisiae JBY575, which represents wild-type yeast, was observed. JBY575 cells transformed with pRS426GAL inserted with the putative levopimaradiene synthase were grown in synthetic complete medium lacking uracil and supplemented with 2% glucose and 1.5% agar at 30° C. to saturation and induced with galactose for 48 hours. Cells were harvested, resuspended in lysis buffer, and mixed by vortexing over glass beads. The lysate was assayed with 60 μM GGDP in the presence and absence of 0.2% and 5% Triton X-100.
as §1, §2
The skilled artisan recognizes that lysis and assay conditions should be optimized. Examples of parameters that can be adjusted to optimize conditions include altering buffer, pH, reductant, reductant concentration, metal cofactors, cofactor concentrations, glycerol concentrations, substrate concentrations, and assay temperatures. […] Maximum soluble protein production and diterpene yield were obtained with the following conditions. Cell cultures were induced with 1 mM IPTG at 20° C. with shaking for 6 hours and lysed by sonication in 30 mM HEPES, pH 7.2, 5 mM DTT, and 5% glycerol. The soluble fraction of the lysate (100 mg/1 mL) was incubated with 20 μM GGDP in 30 mM HEPES, pH 7.2, 5 mM DTT, 5% glycerol, 2 mM MgCl2, and 500 μM MnCl2 overnight at 32° C. Yeast expression was induced with galactose at 30° C. for 48 hours and the cells were lysed and assayed according to the conditions noted.

Molecule	metal cofactor requirement of synthase activity ([1]; MgCl2 and MnCl2 varied)	increase in levopimaradiene yield relative to the bacterial expression system (EHY18 yeast cells; EHY18)	diterpene product on bacterial expression ([1]; E. coli BL21(DE3), soluble lysate fraction, 20 μM GGDP, overnight at 32° C., GC and GC/MS)	diterpene product on yeast expression [2]	diterpene production relative to wild-type synthase (EHY18 yeast cells; EHY18)	diterpene products on expression in EHY18 (EHY18 yeast cells; GC, GC/MS)
Levopimaradiene synthase: enzyme which catalyzes the synthesis of levopimaradiene from geranylgeranyl diphosphate; SEQ.ID.NO:2 (protein, listed as Ginkgo biloba) MAGVLFANLPCSLQLSPKVPFRQSTNILIPFHKRSSFGFNAQHCVRSHLRLRWNCVGIHASAAETRPDQLPQEERFVSRLNADYHPAVWKDDFIDSLTSPNSHATSKSSVDETINKRIQTLVKEIQCMFQSMGDGETNPSAYDTAWVARIPSIDGSGAPQFPQTLQWILNNQLPDGSWGEECIFLAYDRVLNTLACLLTLKIWNKGDIQVQKGVEFVRKHMEEMKDEADNHRPSGFEVVFPAMLDEAKSLGLDLPYHLPFISQIHQKRQKKLQKIPLNVLHNHQTALLYSLEGLQDVVDWQEITNLQSRDGSFLSSPASTACVFMHTQNKRCLHFLNFVLSKFGDYVPCHYPLDLFERLWAVDTVERLGIDRYFKKEIKESLDYVYRYWDAERGVGWARCNPIPDVDDTAMGLRILRLHGYNVSSDVLENFRDEKGDFFCFAGQTQIGVTDNLNLYRCSQVCFPGEKIMEEAKTFTTNHLQNALAKNNAFDKWAVKKDLPGEVEYAIKYPWHRSMPRLEARSYIEQFGSNDVWLGKTVYKMLYVSNEKYLELAKLDFNMVQALHQKETQHIVSWWRESGFNDLTFTRQRPVEMYFSVAVSMFEPEFAACRIAYAKTSCLAVILDDLYDTHGSLDDLKLFSEAVRRWDISVLDSVRDNQLKVCFLGLYNTVNGFGKDGLKEQGRDVLGYLRKVWEGLLASYTKEAEWSAAKYVPTFNEYVENAKVSIALATVVLNSIFFTGELLPDYILQQVDLRSKFLHLVSLTGRLINDTKTYQAERNRGELVSSVQCYMRENPECTEEEALSHVYGIIDNALKELNWELANPASNAPLCVRRLLFNTARVMQLFYMYRDGFGISDKEMKDHVSRTLFDPVA	independent of magnesium but required manganese cofactor for catalysis	three- to six	–	–	–	–
Leu^80: Ginkgo biloba levopimaradiene synthase truncated at Arg^79-Leu^80; amino acid sequence SEQ.ID.NO:37 (protein, listed as Ginkgo biloba) MLNADYHPAVWKDDFIDSLTSPNSHATSKSSVDETINKRIQTLVKEIQCMFQSMGDGETNPSAYDTAWVARIPSIDGSGAPQFPQTLQWILNNQLPDGSWGEECIFLAYDRVLNTLACLLTLKIWNKGDIQVQKGVEFVRKHMEEMKDEADNHRPSGFEVVFPAMLDEAKSLGLDLPYHLPFISQIHQKRQKKLQKIPLNVLHNHQTALLYSLEGLQDVVDWQEITNLQSRDGSFLSSPASTACVFMHTQNKRCLHFLNFVLSKFGDYVPCHYPLDLFERLWAVDTVERLGIDRYFKKEIKESLDYVYRYWDAERGVGWARCNPIPDVDDTAMGLRILRLHGYNVSSDVLENFRDEKGDFFCFAGQTQIGVTDNLNLYRCSQVCFPGEKIMEEAKTFTTNHLQNALAKNNAFDKWAVKKDLPGEVEYAIKYPWHRSMPRLEARSYIEQFGSNDVWLGKTVYKMLYVSNEKYLELAKLDFNMVQALHQKETQHIVSWWRESGFNDLTFTRQRPVEMYFSVAVSMFEPEFAACRIAYAKTSCLAVILDDLYDTHGSLDDLKLFSEAVRRWDISVLDSVRDNQLKVCFLGLYNTVNGFGKDGLKEQGRDVLGYLRKVWEGLLASYTKEAEWSAAKYVPTFNEYVENAKVSIALATVVLNSIFFTGELLPDYILQQVDLRSKFLHLVSLTGRLINDTKTYQAERNRGELVSSVQCYMRENPECTEEEALSHVYGIIDNALKELNWELANPASNAPLCVRRLLFNTARVMQLFYMYRDGFGISDKEMKDHVSRTLFDPVA	–	–	produced levopimaradiene as the exclusive diterpene hydrocarbon; also recorded: provided enzymatic activity capable of cyclizing geranylgeranyl diphosphate to levopimaradiene	yielded levopimaradiene as the sole diterpene; also recorded: yielded levopimaradiene synthase activity	approximately four	produced (+)-copalol, levopimaradiene, abietadiene, and abietatriene
